{"source": "patent US7442159", "key": {"[1]": {"biological_target": "Stoffel fragment of Thermus aquaticus DNA polymerase I fused to p3, displayed on phage (pHEN1-Stoffel) (Thermus aquaticus; filamentous bacteriophage) (UniProt P19821)", "sequence (P19821 290-832 limits assumed)": "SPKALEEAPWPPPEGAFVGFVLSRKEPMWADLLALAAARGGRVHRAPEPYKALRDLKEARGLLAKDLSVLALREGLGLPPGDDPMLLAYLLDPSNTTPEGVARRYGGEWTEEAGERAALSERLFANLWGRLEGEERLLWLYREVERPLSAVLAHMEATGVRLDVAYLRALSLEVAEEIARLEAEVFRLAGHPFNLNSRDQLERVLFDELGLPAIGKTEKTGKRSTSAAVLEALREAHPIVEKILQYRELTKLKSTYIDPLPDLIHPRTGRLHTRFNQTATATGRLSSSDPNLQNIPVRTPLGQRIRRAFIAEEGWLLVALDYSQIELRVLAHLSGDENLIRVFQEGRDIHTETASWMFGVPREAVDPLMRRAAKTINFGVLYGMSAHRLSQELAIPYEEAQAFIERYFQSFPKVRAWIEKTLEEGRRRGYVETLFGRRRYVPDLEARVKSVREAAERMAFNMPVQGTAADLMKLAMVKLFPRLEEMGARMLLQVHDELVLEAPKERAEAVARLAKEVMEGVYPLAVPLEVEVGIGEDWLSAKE", "experiment": "phage ELISA, plate coated with anti-Taq antibody, anti-M13-HRP detection; 10^7 phage particles of clone 10 (selected leader)"}, "[2]": {"biological_target": "Stoffel fragment of Thermus aquaticus DNA polymerase I fused to p3, displayed on phage (pHEN1-Stoffel) (Thermus aquaticus; filamentous bacteriophage) (UniProt P19821)", "experiment": "phage ELISA, plate coated with anti-Taq antibody, anti-M13-HRP detection; 10^9 phage particles of the pelB leader phagemid pHEN1-Stoffel"}}, "data": [{"substance": "anti-Taq antibody (Taqstart, Clontech)", "values": [{"measurement": "signal to noise ratio", "setting": "[1]", "result": 1.47}, {"measurement": "signal to noise ratio", "setting": "[2]", "result": 1.46}]}]}
